Source: publication PMC6555819, “Comprehensive study of nuclear receptor DNA binding provides a revised framework for understanding receptor specificity”
Positions count from the first letter of the chain named.

B1: NRC3_wobSeed37_DR1_C7A_o1 (dsDNA)
DNA 1: GCCGTCAAAGGTCAAAGGTCAGTGAAGAGATGACGGGCGATTGACAGCGTAGAATGAAGG
DNA 2: CCTTCATTCTACGCTGTCAATCGCCCGTCATCTCTTCACTGACCTTTGACCTTTGACGGC
B2: NRC3_wobSeed10_DR0_G14A_o1 (dsDNA)
DNA 1: GCATCGAAAGGTCAAGGTGAGTATAGAGAAAGGGAAGCGATTGACAGCGTAGAATGAAGG
DNA 2: CCTTCATTCTACGCTGTCAATCGCTTCCCTTTCTCTATACTCACCTTGACCTTTCGATGC
B3: NRC3_wobSeed25_DR1_C7A_o1 (dsDNA)
DNA 1: GCCAAAATAGGTCAAAGGTCAAAGTCGAGCCAACCAGCGATTGACAGCGTAGAATGAAGG
DNA 2: CCTTCATTCTACGCTGTCAATCGCTGGTTGGCTCGACTTTGACCTTTGACCTATTTTGGC
B4: NRC3_wobSeed82_DR3_G14A_o1 (dsDNA)
DNA 1: GCATCGAAAGGTCAACGAGGTGAGTATACACCGTTTGCGATTGACAGCGTAGAATGAAGG
DNA 2: CCTTCATTCTACGCTGTCAATCGCAAACGGTGTATACTCACCTCGTTGACCTTTCGATGC
B5: NRC3_wobSeed133_DR5_C7A_o1 (dsDNA)
DNA 1: GCCGTCAAAGGTCAATGCTAGGTCAGTGAAAGCATTGCGATTGACAGCGTAGAATGAAGG
DNA 2: CCTTCATTCTACGCTGTCAATCGCAATGCTTTCACTGACCTAGCATTGACCTTTGACGGC
B6: NRC3_wobSeed130_DR5_G14A_o1 (dsDNA)
DNA 1: GCCTCGAAAGGTCATGCTCAGGTGAGTATACCAAACGCGATTGACAGCGTAGAATGAAGG
DNA 2: CCTTCATTCTACGCTGTCAATCGCGTTTGGTATACTCACCTGAGCATGACCTTTCGAGGC
B7: NRC3_wobSeed121_DR5_C7A_o1 (dsDNA)
DNA 1: GCCAAAATAGGTCACCGGAAGGTCAAAGTCCGCATGGCGATTGACAGCGTAGAATGAAGG
DNA 2: CCTTCATTCTACGCTGTCAATCGCCATGCGGACTTTGACCTTCCGGTGACCTATTTTGGC
B8: NRC3_wobSeed25_DR1_A6G_o1 (dsDNA)
DNA 1: B3 DNA 1 with A6G, A7C
DNA 2: B3 DNA 2 with T54G, T55C
B9: NRC3_wobSeed37_DR1_C7T_o1 (dsDNA)
DNA 1: B1 DNA 1 with A7T
DNA 2: B1 DNA 2 with T54A
B10: NRC3_wobSeed113_DR4_T8G_o1 (dsDNA)
DNA 1: GCATATGGAGGTTAGCTGGGGTCATTCAGACTAGGCGCGATTGACAGCGTAGAATGAAGG
DNA 2: CCTTCATTCTACGCTGTCAATCGCGCCTAGTCTGAATGACCCCAGCTAACCTCCATATGC
B11: NRC3_wobSeed89_DR3_G16T_o1 (dsDNA)
DNA 1: GCCTATGTAGGTTAATGGGGTCATTCAGTTTGAAAGGCGATTGACAGCGTAGAATGAAGG
DNA 2: CCTTCATTCTACGCTGTCAATCGCCTTTCAAACTGAATGACCCCATTAACCTACATAGGC
B12: NRC3_wobSeed106_DR4_G23C_o1 (dsDNA)
DNA 1: GCCTCGAAAGGTCGGTTGAGGTCAGTATACGGATAAGCGATTGACAGCGTAGAATGAAGG
DNA 2: CCTTCATTCTACGCTGTCAATCGCTTATCCGTATACTGACCTCAACCGACCTTTCGAGGC
B13: NRC3_wobSeed45_DR1_A8G_o1 (dsDNA)
DNA 1: GCTGTCAGAGTTCAAAGGTAACGTAAGTATCCACACGCGATTGACAGCGTAGAATGAAGG
DNA 2: CCTTCATTCTACGCTGTCAATCGCGTGTGGATACTTACGTTACCTTTGAACTCTGACAGC
B14: NRC3_wobSeed130_DR5_T29C_o1 (dsDNA)
DNA 1: B6 DNA 1 with A14G, T29C
DNA 2: B6 DNA 2 with A32G, T47C
B15: NRC3_wobSeed66_DR2_A17G_o1 (dsDNA)
DNA 1: GCAATACAGGGTCACTGGGCCAGAGTAGGTACGAATGCGATTGACAGCGTAGAATGAAGG
DNA 2: CCTTCATTCTACGCTGTCAATCGCATTCGTACCTACTCTGGCCCAGTGACCCTGTATTGC
B16: NRC3_wobSeed61_DR2_T5C_o1 (dsDNA)
DNA 1: GCCGCCCAAGGTCAGCAGGTCAGTGAAAGCGACGTGGCGATTGACAGCGTAGAATGAAGG
DNA 2: CCTTCATTCTACGCTGTCAATCGCCACGTCGCTTTCACTGACCTGCTGACCTTGGGCGGC
B17: NRC3_wobSeed137_DR5_A5G_o1 (dsDNA)
DNA 1: GCATGTGTAGGTTACATCCGGGTCATTCAGGCTATGGCGATTGACAGCGTAGAATGAAGG
DNA 2: CCTTCATTCTACGCTGTCAATCGCCATAGCCTGAATGACCCGGATGTAACCTACACATGC
B18: NRC3_wobSeed5_DR0_C4T_o1 (dsDNA)
DNA 1: GCCTTTACGGGTCAAGGTTATAGCACGGGTGGTACGGCGATTGACAGCGTAGAATGAAGG
DNA 2: CCTTCATTCTACGCTGTCAATCGCCGTACCACCCGTGCTATAACCTTGACCCGTAAAGGC
B19: NRC3_wobSeed50_DR2_C25T_o1 (dsDNA)
DNA 1: GCCCTAGTTGGTCAGGAGGTCACATACCGGATATGAGCGATTGACAGCGTAGAATGAAGG
DNA 2: CCTTCATTCTACGCTGTCAATCGCTCATATCCGGTATGTGACCTCCTGACCAACTAGGGC
B20: NRC3_wobSeed101_DR4_C18T_o1 (dsDNA)
DNA 1: GCCCTTACGGGTCACTCTAGGTTATAGCATCGGAGTGCGATTGACAGCGTAGAATGAAGG
DNA 2: CCTTCATTCTACGCTGTCAATCGCACTCCGATGCTATAACCTAGAGTGACCCGTAAGGGC
B21: NRC3_wobSeed82_DR3_A15T_o1 (dsDNA)
DNA 1: B4 DNA 1 with A14G, A15T
DNA 2: B4 DNA 2 with T46A, T47C
B22: NRC3_random_hg19_428_o1 (dsDNA)
DNA 1: GCGAGATTGGAAGGCTTCCAGATGCAAGGCTGTGGCGCGATTGACAGCGTAGAATGAAGG
DNA 2: CCTTCATTCTACGCTGTCAATCGCGCCACAGCCTTGCATCTGGAAGCCTTCCAATCTCGC

Key:
RXRa = RXRa (Homo sapiens, UniProt P19793); assay: no ligand; PBM; 180 nM; PBS pH 7.4, 2% milk, 0.02% Triton X-100, 1 mM DTT, BSA, 0.4 mg/ml salmon testes DNA; details: tags: His cleaved; chain copies: 2; label: surface-attached array probe
Chain of RXRa (P19793 whole entry): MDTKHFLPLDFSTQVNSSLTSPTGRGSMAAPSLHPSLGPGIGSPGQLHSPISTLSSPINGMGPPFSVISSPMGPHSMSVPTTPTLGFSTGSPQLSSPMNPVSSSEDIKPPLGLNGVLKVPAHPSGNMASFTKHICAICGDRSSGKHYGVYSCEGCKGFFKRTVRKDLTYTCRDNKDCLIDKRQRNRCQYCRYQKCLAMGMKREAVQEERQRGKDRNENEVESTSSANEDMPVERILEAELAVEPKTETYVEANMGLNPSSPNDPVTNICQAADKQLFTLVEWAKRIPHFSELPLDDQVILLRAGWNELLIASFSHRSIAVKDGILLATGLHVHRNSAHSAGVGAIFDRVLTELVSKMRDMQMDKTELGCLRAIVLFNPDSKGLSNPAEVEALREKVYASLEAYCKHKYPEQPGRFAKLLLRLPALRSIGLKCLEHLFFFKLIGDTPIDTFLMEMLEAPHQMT
RARg:RXRa = RARg:RXRa (Homo sapiens, UniProt P13631;P19793 full;full); assay: no ligand; PBM; 270 nM : 90 nM RXRa; PBS pH 7.4, 2% milk, 0.02% Triton X-100, 1 mM DTT, BSA, 0.4 mg/ml salmon testes DNA; details: tags: His kept;His cleaved; copies: 1;1; label: surface-attached array probe
Chain of RARg:RXRa (P13631 whole entry, chain 1 of 2): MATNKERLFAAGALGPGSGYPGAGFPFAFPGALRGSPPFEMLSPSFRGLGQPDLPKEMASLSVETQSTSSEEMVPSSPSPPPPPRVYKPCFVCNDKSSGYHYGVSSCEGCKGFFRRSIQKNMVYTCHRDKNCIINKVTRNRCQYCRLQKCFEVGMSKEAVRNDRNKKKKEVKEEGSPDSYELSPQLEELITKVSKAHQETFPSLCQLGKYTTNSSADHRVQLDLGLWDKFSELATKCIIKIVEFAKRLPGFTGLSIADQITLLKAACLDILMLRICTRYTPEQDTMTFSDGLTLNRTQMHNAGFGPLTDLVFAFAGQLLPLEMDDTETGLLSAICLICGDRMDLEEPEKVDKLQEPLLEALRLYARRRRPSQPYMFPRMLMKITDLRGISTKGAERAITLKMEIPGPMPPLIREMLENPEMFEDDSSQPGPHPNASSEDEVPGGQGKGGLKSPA
Chain of RARg:RXRa (P19793 whole entry, chain 2 of 2): as the sequence (P19793 whole entry) above
Procedure, shortened: (§1)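 Random background probes are the reference for binding z-scores. These scores derive from regression-normalized fluorescence on custom Agilent 4×180K protein-binding microarrays incubated 1 h with ligand-free nuclear receptor dimers. Binding was detected with antibodies against each partner (one per run).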

PPARa:RXRa = PPARa:RXRa (Homo sapiens, UniProt Q07869;P19793 full;full); assay: as above; details: tags: GST kept;His cleaved; copies: 1;1; label: surface-attached array probe
Chain of PPARa:RXRa (Q07869 whole entry, chain 1 of 2): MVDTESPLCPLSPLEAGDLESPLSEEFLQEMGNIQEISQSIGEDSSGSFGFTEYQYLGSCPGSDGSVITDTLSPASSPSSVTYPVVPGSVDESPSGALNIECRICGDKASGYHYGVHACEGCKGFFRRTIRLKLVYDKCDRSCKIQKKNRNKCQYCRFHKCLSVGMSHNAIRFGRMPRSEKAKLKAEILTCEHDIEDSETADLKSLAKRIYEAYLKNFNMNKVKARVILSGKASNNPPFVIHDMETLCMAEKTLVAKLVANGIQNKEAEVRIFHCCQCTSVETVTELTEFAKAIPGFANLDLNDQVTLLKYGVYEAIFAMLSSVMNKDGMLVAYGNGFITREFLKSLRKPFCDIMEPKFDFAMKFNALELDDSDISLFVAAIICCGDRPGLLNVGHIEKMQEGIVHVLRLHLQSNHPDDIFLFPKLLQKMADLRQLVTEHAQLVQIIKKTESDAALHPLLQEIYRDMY
Chain of PPARa:RXRa (P19793 whole entry, chain 2 of 2): as the sequence (P19793 whole entry) above
Procedure, shortened: as §1

LXRb:RXRa = LXRb:RXRa (Homo sapiens, UniProt P55055;P19793 full;full); assay: as above; details: tags: His kept;His cleaved; copies: 1;1; label: surface-attached array probe
Chain of LXRb:RXRa (P55055 whole entry, chain 1 of 2): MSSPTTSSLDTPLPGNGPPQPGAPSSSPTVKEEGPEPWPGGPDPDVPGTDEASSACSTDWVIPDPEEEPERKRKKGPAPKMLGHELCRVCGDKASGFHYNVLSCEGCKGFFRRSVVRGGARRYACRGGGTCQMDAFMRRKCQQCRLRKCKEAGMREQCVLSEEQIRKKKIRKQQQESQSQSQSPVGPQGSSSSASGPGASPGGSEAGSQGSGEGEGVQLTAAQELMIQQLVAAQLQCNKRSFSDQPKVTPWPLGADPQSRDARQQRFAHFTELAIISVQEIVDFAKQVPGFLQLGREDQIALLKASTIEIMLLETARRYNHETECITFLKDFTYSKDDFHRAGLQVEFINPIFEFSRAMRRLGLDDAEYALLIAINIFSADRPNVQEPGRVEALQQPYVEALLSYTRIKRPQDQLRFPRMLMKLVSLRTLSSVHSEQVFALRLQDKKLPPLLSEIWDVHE
Chain of LXRb:RXRa (P19793 whole entry, chain 2 of 2): as the sequence (P19793 whole entry) above
Procedure, shortened: as §1

RARb:RXRa = RARb:RXRa (Homo sapiens, UniProt P10826;P19793 full;full); assay: as above; details: tags: His kept;His cleaved; copies: 1;1; label: surface-attached array probe
Chain of RARb:RXRa (P10826 whole entry, chain 1 of 2): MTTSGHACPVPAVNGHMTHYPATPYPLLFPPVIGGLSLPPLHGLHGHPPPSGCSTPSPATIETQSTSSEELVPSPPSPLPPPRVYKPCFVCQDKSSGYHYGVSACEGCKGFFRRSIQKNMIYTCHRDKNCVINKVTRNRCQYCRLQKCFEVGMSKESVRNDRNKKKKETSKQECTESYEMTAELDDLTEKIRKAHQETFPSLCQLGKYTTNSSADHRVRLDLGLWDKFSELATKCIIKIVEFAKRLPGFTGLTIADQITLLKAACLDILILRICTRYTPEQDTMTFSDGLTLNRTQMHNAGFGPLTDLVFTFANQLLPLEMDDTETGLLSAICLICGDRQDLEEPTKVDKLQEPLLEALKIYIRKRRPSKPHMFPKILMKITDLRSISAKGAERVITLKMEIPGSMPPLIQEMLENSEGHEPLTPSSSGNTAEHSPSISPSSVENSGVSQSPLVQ
Chain of RARb:RXRa (P19793 whole entry, chain 2 of 2): as the sequence (P19793 whole entry) above
Procedure, shortened: as §1

VDR:RXRa = VDR:RXRa (Homo sapiens, UniProt P11473;P19793 full;full); assay: as above; details: tags: His kept;His cleaved; copies: 1;1; label: surface-attached array probe
Chain of VDR:RXRa (P11473 whole entry, chain 1 of 2): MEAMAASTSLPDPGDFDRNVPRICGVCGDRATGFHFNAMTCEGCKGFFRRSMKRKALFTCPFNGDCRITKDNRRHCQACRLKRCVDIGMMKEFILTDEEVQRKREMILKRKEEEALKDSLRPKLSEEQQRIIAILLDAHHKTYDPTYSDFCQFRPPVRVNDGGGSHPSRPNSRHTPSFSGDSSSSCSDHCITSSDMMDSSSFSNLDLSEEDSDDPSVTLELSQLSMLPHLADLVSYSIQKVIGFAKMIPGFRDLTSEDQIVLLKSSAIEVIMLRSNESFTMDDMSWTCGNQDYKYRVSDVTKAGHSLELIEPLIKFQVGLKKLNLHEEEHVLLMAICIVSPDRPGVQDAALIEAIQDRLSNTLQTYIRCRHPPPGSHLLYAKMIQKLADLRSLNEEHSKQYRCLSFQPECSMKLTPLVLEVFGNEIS
Chain of VDR:RXRa (P19793 whole entry, chain 2 of 2): as the sequence (P19793 whole entry) above
Procedure, shortened: as §1

LXRa:RXRa = LXRa:RXRa (Homo sapiens, UniProt Q13133;P19793 full;full); assay: as above; details: tags: His kept;His cleaved; copies: 1;1; label: surface-attached array probe
Chain of LXRa:RXRa (Q13133 whole entry, chain 1 of 2): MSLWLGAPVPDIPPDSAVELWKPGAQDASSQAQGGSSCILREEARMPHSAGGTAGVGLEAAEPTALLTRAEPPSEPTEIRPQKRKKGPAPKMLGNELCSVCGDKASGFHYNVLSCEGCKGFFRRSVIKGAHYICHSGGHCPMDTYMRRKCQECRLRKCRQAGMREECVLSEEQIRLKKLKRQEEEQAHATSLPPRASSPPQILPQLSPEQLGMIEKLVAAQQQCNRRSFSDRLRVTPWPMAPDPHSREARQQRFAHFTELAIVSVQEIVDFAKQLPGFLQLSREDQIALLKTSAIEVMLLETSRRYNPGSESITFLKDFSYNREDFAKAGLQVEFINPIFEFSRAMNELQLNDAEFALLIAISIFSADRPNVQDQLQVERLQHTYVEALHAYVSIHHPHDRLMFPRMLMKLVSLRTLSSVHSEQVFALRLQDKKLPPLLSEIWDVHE
Chain of LXRa:RXRa (P19793 whole entry, chain 2 of 2): as the sequence (P19793 whole entry) above
Procedure, shortened: as §1

FXR:RXRa = FXR:RXRa (Homo sapiens, UniProt Q96RI1;P19793 full;full); assay: as above; details: tags: His kept;His cleaved; copies: 1;1; label: surface-attached array probe
Chain of FXR:RXRa (Q96RI1 whole entry, chain 1 of 2): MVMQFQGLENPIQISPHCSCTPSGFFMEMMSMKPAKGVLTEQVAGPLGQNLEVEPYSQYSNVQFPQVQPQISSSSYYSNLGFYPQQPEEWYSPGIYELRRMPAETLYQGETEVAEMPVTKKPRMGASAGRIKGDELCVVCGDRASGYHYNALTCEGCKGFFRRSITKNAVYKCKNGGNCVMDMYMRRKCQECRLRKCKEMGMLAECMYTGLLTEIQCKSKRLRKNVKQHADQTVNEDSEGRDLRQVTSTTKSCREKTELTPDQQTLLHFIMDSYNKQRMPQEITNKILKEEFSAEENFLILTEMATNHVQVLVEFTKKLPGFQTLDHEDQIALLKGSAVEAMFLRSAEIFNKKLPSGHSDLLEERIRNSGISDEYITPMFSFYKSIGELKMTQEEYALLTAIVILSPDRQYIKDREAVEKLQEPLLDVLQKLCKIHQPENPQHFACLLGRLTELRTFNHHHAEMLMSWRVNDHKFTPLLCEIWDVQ
Chain of FXR:RXRa (P19793 whole entry, chain 2 of 2): as the sequence (P19793 whole entry) above
Procedure, shortened: as §1

PXR:RXRa = PXR:RXRa (Homo sapiens, UniProt O75469;P19793 full;full); assay: as above; details: tags: His kept;His cleaved; copies: 1;1; label: surface-attached array probe
Chain of PXR:RXRa (O75469 whole entry, chain 1 of 2): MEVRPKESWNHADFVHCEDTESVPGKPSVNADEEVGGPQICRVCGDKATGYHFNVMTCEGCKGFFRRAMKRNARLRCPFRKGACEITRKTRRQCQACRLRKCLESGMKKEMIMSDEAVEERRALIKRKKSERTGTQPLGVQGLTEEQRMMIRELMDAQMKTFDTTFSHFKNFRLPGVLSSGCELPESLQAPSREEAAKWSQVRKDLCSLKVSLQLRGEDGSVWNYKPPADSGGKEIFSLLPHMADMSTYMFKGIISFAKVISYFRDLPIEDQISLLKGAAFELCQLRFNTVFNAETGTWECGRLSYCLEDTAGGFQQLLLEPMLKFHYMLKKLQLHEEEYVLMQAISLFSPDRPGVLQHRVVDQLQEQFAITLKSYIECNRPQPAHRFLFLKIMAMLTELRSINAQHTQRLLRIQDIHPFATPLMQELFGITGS
Chain of PXR:RXRa (P19793 whole entry, chain 2 of 2): as the sequence (P19793 whole entry) above
Procedure, shortened: as §1

Binder	binding signal (RXRa)	binding signal (RARg:RXRa)	binding signal (LXRb:RXRa)	binding signal (RARb:RXRa)	binding signal (LXRa:RXRa)	binding signal (PXR:RXRa)	also measured
B1	11 PBM z-score against 500 random probes	9.63 PBM z-score against 500 random probes	7.7 PBM z-score against 500 random probes	6.32 PBM z-score against 500 random probes	7.91 PBM z-score against 500 random probes		binding signal (PPARa:RXRa): 7.54 PBM z-score against 500 random probes; binding signal (VDR:RXRa): 7.1 PBM z-score against 500 random probes; binding signal (FXR:RXRa): 9.14 PBM z-score against 500 random probes
B2	8.13 PBM z-score against 500 random probes	7.61 PBM z-score against 500 random probes	5.9 PBM z-score against 500 random probes	6.24 PBM z-score against 500 random probes	7.08 PBM z-score against 500 random probes		binding signal (PPARa:RXRa): 7.41 PBM z-score against 500 random probes; binding signal (FXR:RXRa): 8.27 PBM z-score against 500 random probes
B3	10.9 PBM z-score against 500 random probes	9.5 PBM z-score against 500 random probes	7.8 PBM z-score against 500 random probes	6.18 PBM z-score against 500 random probes	7.77 PBM z-score against 500 random probes		binding signal (VDR:RXRa): 7.13 PBM z-score against 500 random probes; binding signal (FXR:RXRa): 8.93 PBM z-score against 500 random probes
B4	8.25 PBM z-score against 500 random probes	7.92 PBM z-score against 500 random probes	6.3 PBM z-score against 500 random probes	6.1 PBM z-score against 500 random probes	7.22 PBM z-score against 500 random probes		binding signal (PPARa:RXRa): 6.87 PBM z-score against 500 random probes; binding signal (VDR:RXRa): 7.33 PBM z-score against 500 random probes; binding signal (FXR:RXRa): 8.61 PBM z-score against 500 random probes
B5	8.08 PBM z-score against 500 random probes	8.73 PBM z-score against 500 random probes	6.22 PBM z-score against 500 random probes	6.04 PBM z-score against 500 random probes	6.75 PBM z-score against 500 random probes		binding signal (PPARa:RXRa): 6.56 PBM z-score against 500 random probes; binding signal (FXR:RXRa): 8.38 PBM z-score against 500 random probes
B6	8.8 PBM z-score against 500 random probes	7.89 PBM z-score against 500 random probes	5.85 PBM z-score against 500 random probes	5.96 PBM z-score against 500 random probes	7.19 PBM z-score against 500 random probes		binding signal (PPARa:RXRa): 6.66 PBM z-score against 500 random probes; binding signal (FXR:RXRa): 8.36 PBM z-score against 500 random probes
B7	7.97 PBM z-score against 500 random probes	9.04 PBM z-score against 500 random probes	6.15 PBM z-score against 500 random probes	5.81 PBM z-score against 500 random probes	7 PBM z-score against 500 random probes		binding signal (VDR:RXRa): 6.58 PBM z-score against 500 random probes
B8						7.42 PBM z-score against 500 random probes	
B9						7.41 PBM z-score against 500 random probes	
B10						6.8 PBM z-score against 500 random probes	
B11						6.66 PBM z-score against 500 random probes	
B12						6.52 PBM z-score against 500 random probes	
B13						6.41 PBM z-score against 500 random probes	
B14						3.76 PBM z-score against 500 random probes	
B15						3.74 PBM z-score against 500 random probes	
B16						3.73 PBM z-score against 500 random probes	
B17						3.72 PBM z-score against 500 random probes	
B18						3.7 PBM z-score against 500 random probes	
B19						3.69 PBM z-score against 500 random probes	
B20						3.67 PBM z-score against 500 random probes	
B21						3.66 PBM z-score against 500 random probes	
B22			-1.31 PBM z-score against 500 random probes		-1.14 PBM z-score against 500 random probes		binding signal (VDR:RXRa): -1.12 PBM z-score against 500 random probes
